Patent publication US20020127539A1, “Assays for identifying receptors having alterations in signaling” (priority 2000, published 2002)

How the values were obtained:
[1] = molecular target: T1, MC-4 receptor (Homo sapiens, UniProt P32245, D146M); assay: SMS-Luc luciferase reporter assay in HEK293 cells; type: cell-based; details: FIG. 10
T1 construct: expressed in transfected cells; host or cells: HEK293
Description: Briefly, HEK293 cells were cotransfected, as described above, with an expression vector encoding either the wild-type MC-4 receptor or the Asp146Met mutant MC-4 receptor and the reporter construct, SMS-Luc. As a negative control, cells were transfected with SMS-Luc and pcDNA1. Basal and ligand (αMHS) induced activity of the negative control, the wild-type MC-4 receptor, and the Asp146Met mutant MC-4 receptor were measured using the luciferase assay described above.

[2] = test system: rat mu opioid receptor; assay: CRE-Luc luciferase reporter assay with forskolin stimulation; type: cell-based; details: FIG. 3, CRE-Luc
Excerpt: Similarly, a constitutively active rat mu opioid receptor was identified using a reporter construct sensitive to Gαi coupling (see FIG. 3). The response element employed in this assay was the cAMP-response element (CRE), which is sensitive to Gαi mediated changes in intracellular levels of cAMP. Signaling through the rat mu opioid receptor via Gαi inhibits adenylate cyclase, causing a decrease in intracellular cAMP. Therefore, an increase in rat mu opioid receptor signaling induces a decrease in CRE mediated reporter activity.
Prior to the present invention, Gαi-mediated decreases in intracellular cAMP were measured by (1) stimulating cells with forskolin, which causes receptor-independent activation of adenylate cyclase and generates an intracellular pool of cAMP; (2) stimulating the cells with ligand; and (3) measuring the ligand-induced, receptor-dependent Gαi-mediated decrease in the intracellular cAMP pool (e.g., using a radioimmunoassay (e.g., New England Nuclear, Boston, Mass.)). […] The basal (and ligand-induced) level of receptor activity was then measured using a standard luciferase assay (see FIG. 3). Coexpression of the receptor of interest with a luciferase reporter gene construct allows one to measure light emission as a readout for basal signaling.

T1 sequence (P32245 whole entry D146M): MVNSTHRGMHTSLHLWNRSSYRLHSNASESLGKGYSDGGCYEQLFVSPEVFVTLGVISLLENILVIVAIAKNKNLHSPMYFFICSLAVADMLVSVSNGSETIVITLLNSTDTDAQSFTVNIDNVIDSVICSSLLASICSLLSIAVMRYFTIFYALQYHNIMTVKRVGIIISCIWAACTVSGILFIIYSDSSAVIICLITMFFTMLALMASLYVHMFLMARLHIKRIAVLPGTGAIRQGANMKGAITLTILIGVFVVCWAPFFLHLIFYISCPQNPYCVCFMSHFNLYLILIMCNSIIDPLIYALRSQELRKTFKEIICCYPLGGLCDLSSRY

| Molecule | basal level activity compared to wild-type MC-4 receptor [1] | effect of agonist stimulation on forskolin induced activity [2] |
| --- | --- | --- |
| Asp146Met mutant MC-4 receptor: melanocortin-4 receptor with Asp146Met substitution in the DRY motif | higher basal level activity |  |
| C[C@@H](NC(=O)[C@@H](N)Cc1ccc(O)cc1)C(=O)NCC(=O)N(C)[C@@H](Cc1ccccc1)C(=O)NCCO [DAMGO, [D-Ala^2-MePhe^4, Gly-ol^5]enkephalin], reference compound] |  | decrease in forskolin induced activity |
